The target in data set [1] is T1, endogenous HIF-1 in hypoxic Hep3B cells (Homo sapiens, UniProt Q16665;P27540 Q16665:1-826,P27540:2-789). Briefly: cell_activity; pPFKL3svcat, three copies, 1% vs 20% O2. The settings on record: chain copies: heterodimer (inferred); 5' GATC overhang. The protocol:
(§1) Plasmids were purified by alkaline lysis and two rounds of cesium chloride density gradient centrifugation. Hep3B cells were transfected by electroporation with a Gene Pulser (Bio-Rad) at 260 V and 960 microfarads. Duplicate electroporations were pooled and split onto two 10 cm tissue culture dishes (Corning) containing 8 ml of media. Cells were allowed to recover for 24 h in a 5% CO_2 95% air incubator at 37° C., the media was replaced, and one set of duplicate plates was removed to a modular incubator chamber, which was flushed with 1% O_2, 5% CO_2, balance N_2, sealed, and placed at 37° C. Cells were harvested 72 h after transfection, and extracts were prepared for CAT and β-galactosidase activity.
(§2) To determine whether these HIF-1 binding sites were of functional importance, transient expression essays were performed using the reporter genes described above. Reporter plasmids were cotransfected into Hep3B cells with pSVβgal, which was included as a control for variation in transfection efficiency. Transfected cells were split among duplicate plates that were cultured in 1 or 20% O_2 for 48 h, CAT and β-galactosidase protein synthesized following transcription of reporter and control plasmids, respectively, were quantitated from cellular extracts. […]
(§3) HIF-1 binding site sequences from glycolytic genes were analyzed in the same assay. […]

For data set [2], the target named is T2, HIF-1 (HIF-1alpha/HIF-1beta (ARNT) heterodimer), affinity-purified (Homo sapiens, UniProt Q16665;P27540 Q16665:1-826,P27540:2-789). In words: EMSA; competed by unlabeled W18 but not M18; buffer Z-100. The settings on record: tags: none; from CoCl2-treated HeLa S3 cells or hypoxic Hep3B cells; chain copies: heterodimer (inferred), higher-order form also seen; 5' gatc overhangs. The protocol: Nuclear extracts were fractionated by DEAE-Sepharose chromatography, and fractions containing HIF-1 activity were applied to a W18 DNA affinity column. 5 ug of protein were incubated with 0.1 ug of calf thymus DNA for gel shift analysis of crude nuclear extract (Crude NE, lane 1) and HIF-1 active fractions from DEAE-Sepharose columns (DEAE, lane 2). For fractions from the W18 column (lanes 3–13), 1 ul aliquots were incubated with 5 ng of calf thymus DNA. The positions of the two HIF-1 bands, constitutive activity (C), nonspecific activity (NS), and free probe (F) are indicated. FT, flowthrough, 0.25M, 0.5M, 1M, and 2M are fractions eluted with indicated concentration of KCl in buffer Z. Figure 3B: FIG. 3B is an autoradiograph showing sequence-specific DNA binding of the partially purified fractions described in the legend to FIG. 3A. 5 ug aliquots of fractions from the DEAE-Sepharose column were incubated with W18 probe in the presence of no competitor (lane 1), 10-fold (lanes 2 and 5), 50-fold (lanes 3 and 6), or 250-fold (lanes 4 and 7) molar excess of unlabeled W18 (W, lanes 2–4) or M18 (M, lanes 5–7) oligonucleotide.
T2 sequence (Q16665 whole entry, chain 1 of 2): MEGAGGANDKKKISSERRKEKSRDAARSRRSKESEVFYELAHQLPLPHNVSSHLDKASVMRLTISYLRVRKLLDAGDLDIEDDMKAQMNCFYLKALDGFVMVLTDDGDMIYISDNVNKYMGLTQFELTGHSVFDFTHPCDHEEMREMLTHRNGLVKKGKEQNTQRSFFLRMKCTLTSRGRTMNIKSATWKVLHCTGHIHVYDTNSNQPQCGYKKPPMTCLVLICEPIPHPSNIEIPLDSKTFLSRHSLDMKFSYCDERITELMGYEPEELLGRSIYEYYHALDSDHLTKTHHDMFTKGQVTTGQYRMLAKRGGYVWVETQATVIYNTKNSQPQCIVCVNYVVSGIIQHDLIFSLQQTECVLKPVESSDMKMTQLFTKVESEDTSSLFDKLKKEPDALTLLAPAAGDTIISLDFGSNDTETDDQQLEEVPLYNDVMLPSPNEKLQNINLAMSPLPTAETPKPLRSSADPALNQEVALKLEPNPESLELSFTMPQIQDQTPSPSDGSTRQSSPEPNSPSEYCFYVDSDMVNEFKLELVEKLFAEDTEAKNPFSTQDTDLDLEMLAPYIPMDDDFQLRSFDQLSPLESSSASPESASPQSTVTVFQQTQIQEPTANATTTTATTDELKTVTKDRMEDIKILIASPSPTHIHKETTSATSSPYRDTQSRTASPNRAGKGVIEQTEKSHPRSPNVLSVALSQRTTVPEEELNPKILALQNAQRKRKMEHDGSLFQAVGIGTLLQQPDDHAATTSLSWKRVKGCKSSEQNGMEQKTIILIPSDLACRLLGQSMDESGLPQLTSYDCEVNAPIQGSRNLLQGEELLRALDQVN
T2 sequence (P27540 2-789, chain 2 of 2): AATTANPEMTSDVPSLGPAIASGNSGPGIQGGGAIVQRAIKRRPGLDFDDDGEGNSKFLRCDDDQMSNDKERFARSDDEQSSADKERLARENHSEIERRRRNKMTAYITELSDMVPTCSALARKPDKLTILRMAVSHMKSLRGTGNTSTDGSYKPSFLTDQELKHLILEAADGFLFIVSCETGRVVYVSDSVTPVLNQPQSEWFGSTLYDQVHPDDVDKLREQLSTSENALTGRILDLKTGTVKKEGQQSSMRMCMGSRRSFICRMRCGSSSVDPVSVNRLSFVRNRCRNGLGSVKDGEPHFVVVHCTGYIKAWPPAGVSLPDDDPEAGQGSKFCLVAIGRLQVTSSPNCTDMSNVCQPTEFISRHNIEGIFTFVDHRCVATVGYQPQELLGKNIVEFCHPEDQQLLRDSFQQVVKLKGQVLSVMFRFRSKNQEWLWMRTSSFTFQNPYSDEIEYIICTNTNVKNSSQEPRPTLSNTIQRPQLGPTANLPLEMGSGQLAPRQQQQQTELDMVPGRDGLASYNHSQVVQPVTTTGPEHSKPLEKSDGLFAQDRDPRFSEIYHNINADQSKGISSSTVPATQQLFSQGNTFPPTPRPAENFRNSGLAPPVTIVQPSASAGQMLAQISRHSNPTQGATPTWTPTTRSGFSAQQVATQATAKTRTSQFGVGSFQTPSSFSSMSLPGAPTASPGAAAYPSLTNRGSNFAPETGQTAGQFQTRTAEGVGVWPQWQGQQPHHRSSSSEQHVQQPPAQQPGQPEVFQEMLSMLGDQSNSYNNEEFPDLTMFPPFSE
Since HIF-1 DNA binding activity from hypoxic Hep3B cells and CoCl_2-treated HeLa cells are indistinguishable (Example 1), HeLa S3 cells treated with 125 uM CoCl_2 were used as starting material for the large scale purification of HIF-1. […]
(In EMSA bound probe runs differently from free probe, usually more slowly.)

The target of data set [3] is T1, endogenous HIF-1 in hypoxic Hep3B cells. Briefly: cell_activity; psvcatEPO2, two copies, 1% vs 20% O2; one copy 4.9-fold. To be noted: chain copies: heterodimer (inferred). The text has this: Oligonucleotides were cloned into the BglII and BamHI sites located 5' and 3' to the transcription unit, respectively. Plasmids pNMHcat and pHcat (Concordet et al. (1991) Nucleic Acids Res. 19:4173–4180), containing human aldolase A gene sequences fused directly to CAT coding sequences, were provided by P. Maire. pSVβgal (Promega) contained bacterial lacZ coding sequences driven by the SV40 early region promoter and enhancer. Plasmids were purified by alkaline lysis and two rounds of cesium chloride density gradient centrifugation. Hep3B cells were transfected by electroporation with a Gene Pulser (Bio-Rad) at 260 V and 960 microfarads. Duplicate electroporations were pooled and split onto two 10 cm tissue culture dishes (Corning) containing 8 ml of media. […]
To determine whether these HIF-1 binding sites were of functional importance, transient expression essays were performed using the reporter genes described above. […] Transfected cells were split among duplicate plates that were cultured in 1 or 20% O_2 for 48 h, CAT and β-galactosidase protein synthesized following transcription of reporter and control plasmids, respectively, were quantitated from cellular extracts. […]

For data set [4] the target is unchanged. In words: cell_activity; pPGK2svcat, two copies, 1% vs 20% O2. To be noted: chain copies: heterodimer (inferred); 5' GATC overhang. As to the method:
as §1, §2, §3

Data set [5] concerns the target T2, HIF-1 (HIF-1alpha/HIF-1beta (ARNT) …). In words: competition; up to 250-fold excess M18 does not compete; HIF-1 flows through M18 column. To be noted: tags: none; from CoCl2-treated HeLa S3 cells or hypoxic Hep3B cells; chain copies: heterodimer (inferred), higher-order form also seen; 5' gatc overhangs.

T1 sequence (Q16665 whole entry, chain 1 of 2): as the sequence (Q16665 whole entry, chain 1 of 2) above
T1 sequence (P27540 2-789, chain 2 of 2): as the sequence (P27540 2-789, chain 2 of 2) above

B1: mPFKL IVS-1 +336/+361 (dsDNA)
DNA 1: GATCCCGGGTAGCTGGCGTACGTGCTGCAG
DNA 2: CTGCAGCACGTACGCCAGCTACCCGGGATC
In turn, B1 came in with an activity in data set [1] of 47 fold induction.

B2: W18 (hEPO 3'-FS nt 1-18) (dsDNA)
DNA 1: GATCGCCCTACGTGCTGTCTCA
DNA 2: GATCTGAGACAGCACGTAGGGC
Take B2: the binding result in data set [2] was “binds”.

B3: hEPO 3'-FS +3065/+3097 (dsDNA)
DNA 1: GCCCTACGTGCTGTCTCACACAGCCTGTCTGA
DNA 2: TCAGACAGGCTGTGTGAGACAGCACGTAGGGC
B3 came in with an activity in data set [3] of 17 fold induction.

B4: hPGK1 5'-FS -172/-194 (dsDNA)
DNA 1: GATCGTGAGACGTGCGGCTTCCGTTTG
DNA 2: CAAACGGAAGCCGCACGTCTCACGATC
B4 showed an activity in data set [4] of 5.6 fold induction.

B5: M18 (dsDNA)
DNA 1: GATCGCCCTAAAAGCTGTCTCA
DNA 2: GATCTGAGACAGCTTTTAGGGC
Take B5: the binding result in data set [5] is “no binding”.

The values are drawn from patent publication US6222018, “Hypoxia inducible factor-1 and method of use” (The Johns Hopkins University School of Medicine).
